Test results taken from patent publication US20110311550A1 (Scripps Research, published 2011).

Experiments:
[1] = biological target: VSV (control pseudotype virus envelope); assay: cell-based or functional assay
[2] = biological target: T1, vaccinia-expressed E1E2 complex, isolate HCV-1 (genotype 1a) (hepatitis C virus, isolate HCV-1, UniProt P26664 192-383; P26664 384-746); assay: competition ELISA on HCV-1 E1E2; competitor m25 (9/27)
[3] = biological target: T1, vaccinia-expressed E1E2 complex, …; assay: competition ELISA on HCV-1 E1E2; competitor m31 (11/20)
[4] = biological target: T2, E1E2 complex of HCV isolate H77 (genotype 1a), wild type (HCV isolate H77, UniProt P27958 192-383; P27958 384-746); assay: competition ELISA on H77 E1E2; competitor m41 (Fab O1)
[5] = biological target: T1, vaccinia-expressed E1E2 complex, …; assay: competition ELISA on HCV-1 E1E2; competitor m24 (7/59)
[6] = biological target: T1, vaccinia-expressed E1E2 complex, …; assay: competition ELISA on HCV-1 E1E2; competitor m29 (2/69A)
[7] = biological target: T1, vaccinia-expressed E1E2 complex, …; assay: competition ELISA on HCV-1 E1E2; competitor m21 (CBH-5)
[8] = biological target: T1, vaccinia-expressed E1E2 complex, …; assay: competition ELISA on HCV-1 E1E2; competitor m7 (AR3D)
[9] = biological target: T1, vaccinia-expressed E1E2 complex, …; assay: competition ELISA on HCV-1 E1E2; competitor m22 (CBH-7)
[10] = biological target: T1, vaccinia-expressed E1E2 complex, …; assay: competition ELISA on HCV-1 E1E2; competitor m36 (A4)
[11] = biological target: T1, vaccinia-expressed E1E2 complex, …; assay: competition ELISA on HCV-1 E1E2; competitor m26 (AP33)
[12] = biological target: T1, vaccinia-expressed E1E2 complex, …; assay: competition ELISA on HCV-1 E1E2; competitor m34 (6/53)
[13] = biological target: T1, vaccinia-expressed E1E2 complex, …; assay: competition ELISA on HCV-1 E1E2; competitor m3 (AR2A)
[14] = biological target: T1, vaccinia-expressed E1E2 complex, …; assay: competition ELISA on HCV-1 E1E2; competitor m2 (AR1B)
[15] = biological target: T1, vaccinia-expressed E1E2 complex, …; assay: competition ELISA on HCV-1 E1E2; competitor m30 (7/16B)
[16] = biological target: T1, vaccinia-expressed E1E2 complex, …; assay: competition ELISA on HCV-1 E1E2; competitor m33 (9/75)
[17] = biological target: T2, E1E2 complex of HCV isolate H77 …; assay: competition ELISA on H77 E1E2; competitor m46 (Fab P4)
[18] = biological target: T1, vaccinia-expressed E1E2 complex, …; assay: competition ELISA on HCV-1 E1E2; competitor m23 (H53)
[19] = biological target: T2, E1E2 complex of HCV isolate H77 …; assay: competition ELISA on H77 E1E2; competitor m37 (Fab N1)
[20] = biological target: T2, E1E2 complex of HCV isolate H77 …; assay: competition ELISA on H77 E1E2; competitor m42 (Fab P1)
[21] = biological target: T1, vaccinia-expressed E1E2 complex, …; assay: competition ELISA on HCV-1 E1E2; competitor m4 (AR3A)
[22] = biological target: T1, vaccinia-expressed E1E2 complex, …; assay: competition ELISA on HCV-1 E1E2; competitor m35 (ALP98)

B1: MAb AR3C (antibody, V domains shown)
VH: LEQSGAEVKKPGSSVKVSCETSGGTLDNYALNWVRQAPGQGLEWIGGVVPLFGTTRNAQKFQGRVTISDDKSTGTGHMELRSLRSEDTAVYYCVRSVTPRYCGGGFCYGEFDYWGQGTLVTVSS
VL: ELTQSPATLSVSPGERATLSCRASQSVSSNLAWYQQKPGQAPRLLIYGASTRATGIPARFSGSGSGTEFTLTVSRLEPEDSAVYFCQQYYRSPLTFGGGTKVEIKR
notes: also called IgG1 of Fab H3
[1]
  Neutralizing activity (IC50) on control pseudotype virus: > 50 µg/mL
[2]
  % residual binding: 62%
[3]
  % residual binding: 62%
[4]
  % residual binding: 77%
[5]
  % residual binding: 95%
[6]
  % residual binding: 68%
[7]
  % residual binding: 19%
[8]
  % residual binding: 12%
[9]
  % residual binding: 39%
[10]
  % residual binding: 93%
[11]
  % residual binding: 33%
[12]
  % residual binding: 105%
[13]
  % residual binding: 83%
[14]
  % residual binding: 91%
[15]
  % residual binding: 99%
[16]
  % residual binding: 51%
[17]
  % residual binding: 155%
[18]
  % residual binding: 77%
[19]
  % residual binding: 146%
[20]
  % residual binding: 131%
[21]
  % residual binding: 9%
[22]
  % residual binding: 99%
